Laboratory results reported in PMC8187709, “Structural basis for SARS-CoV-2 envelope protein recognition of human cell junction protein PALS1” (Nature Communications, 2021).

B1: PALS1 PSG (PDZ, SH3 and GK domains; residues 236–675 with a deletion between 411–460) (domain or fragment, human, UniProt Q8N3R9 236-675, looked up)
chain: PITDERVYESIGQYGGETVKIVRIEKARDIPLGATVRNEMDSVIISRIVKGGAAEKSGLLHEGDEVLEINGIEIRGKDVNEVFDLLSDMHGTLTFVLIPSQQIKPPPAKETVIHVKAHFDYDPSDDPYVPCRELGLSFQKGDILHVISQEDPNWWQAYREGDEDNQPLAGLVPGKEEILTYEEMSLYHQPANRKRPIILIGPQNCGQNELRQRLMNKEKDRFASAVPHTTRSRRDQEVAGRDYHFVSRQAFEADIAAGKFIEHGEFEKNLYGTSIDSVRQVINSGKICLLSLRTQSLKTLRNSDLKPYIIFIAPPSQERLRALLAKEGKNPKPEELREIIEKTREMEQNNGHYFDTAIVNSDLDKAYQELLRLINKLDTEPQWVPSTWLR
modifications: covalently labeled with dye NT647 (in the MST measurement only)
notes: PALS1, human cell junction protein; PDZ, SH3 and GK domains (PSG), residues 236–675, without the loop between the SH3 and GK domains (deletion between 411–460); codon-optimised synthetic gene in pET16-b; also called PASL1–PSG domains; source: E. coli BL21 (DE3) pLysS, purified (Ni-NTA, TEV cleavage, second Ni-NTA, SEC); not shown: 10x His, N-terminal, cleaved

Tests used:
[1] = biological target: B1; assay: MST; […]; 50 mM Tris pH 7.5, 100 mM NaCl, 1 mM DTT, 1 mM EDTA, 0.05% Tween 20; 10 min at room temperature; […]; settings: both partners purified
[2] = biological target: the molecule itself; assay: SEC; purified PSG on a TSKgel G3000SW column in 25 mM Tris pH 7.5, 100 mM NaCl, 1 mM TCEP

| Binder | Kd [1] [µM] | stoichiometry N [2] |
| --- | --- | --- |
| VYSRVKNLNSSRVPDLLV (SARS-CoV-2 envelope (E) protein, 75 residues; also called E C-terminal peptide) [SARS-CoV-2 envelope (E) protein C-terminal 18-amino acid peptide (Ec18)] | 11.2 |  |
| B1 |  | 2 |
